One block for each binder: values may come before it. Starred links: 1 amine or outer side, 2 acyl side, 3 side chain; linkers in the order of their positions; H or OH if unused. Non-standard residues stand in square brackets, D forms with d. Groups on a side chain read outwards from the residue. No end group written: not given here. *: point of attachment. C20 diacid = O=C(O)CCCCCCCCCCCCCCCCCCC(=O)*; C18 diacid = O=C(O)CCCCCCCCCCCCCCCCC(=O)*; γGlu = O=C(O)[C@H](CCC(=O)[*:2])N[*:1]; εLys = N[C@@H](CCCCN[*:1])C(=O)[*:2]; AEEA = NCCOCCOCC(=O)O; Aib = CC(C)(N)C(=O)O; OEG = OEG spacer
Tests used:
Experiment in all cases: cell-based or functional assay
[1] = biological target: T1, human neuropeptide Y2 receptor (human, UniProt P49146 1-381)
T1 sequence (looked up): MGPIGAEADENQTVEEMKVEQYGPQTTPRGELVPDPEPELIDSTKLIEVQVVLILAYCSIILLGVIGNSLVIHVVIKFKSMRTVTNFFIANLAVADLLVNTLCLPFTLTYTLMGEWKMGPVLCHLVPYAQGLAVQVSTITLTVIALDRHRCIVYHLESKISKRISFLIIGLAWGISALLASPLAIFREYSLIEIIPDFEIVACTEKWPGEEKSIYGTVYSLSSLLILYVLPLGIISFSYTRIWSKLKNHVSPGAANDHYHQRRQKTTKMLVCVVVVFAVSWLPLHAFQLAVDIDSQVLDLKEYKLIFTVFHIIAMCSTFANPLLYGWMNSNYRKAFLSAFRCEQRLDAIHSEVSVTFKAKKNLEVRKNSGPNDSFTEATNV

human GLP-1 receptor = human GLP-1 receptor (human, UniProt P43220 24-463)
human GIP receptor = biological target: T2, human GIP receptor (human, UniProt P48546 22-466)
T2 sequence (looked up): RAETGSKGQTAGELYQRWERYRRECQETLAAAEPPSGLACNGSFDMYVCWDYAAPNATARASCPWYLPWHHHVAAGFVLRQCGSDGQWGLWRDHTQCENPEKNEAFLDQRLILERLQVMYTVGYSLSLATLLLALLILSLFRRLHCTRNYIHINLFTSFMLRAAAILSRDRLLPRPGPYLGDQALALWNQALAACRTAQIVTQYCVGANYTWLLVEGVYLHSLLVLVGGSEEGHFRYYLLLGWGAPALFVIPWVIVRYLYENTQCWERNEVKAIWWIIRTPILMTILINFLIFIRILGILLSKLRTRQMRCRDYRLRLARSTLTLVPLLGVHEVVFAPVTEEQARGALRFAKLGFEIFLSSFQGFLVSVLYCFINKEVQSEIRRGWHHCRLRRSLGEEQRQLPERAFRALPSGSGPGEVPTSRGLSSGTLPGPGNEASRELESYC

- EC50 hNPY2R 0.5% hP (CreLuc) [1]: 9.25 nM
- EC50 hNPY2R 100% hP (CreLuc) [1]: 27.6 nM
- EC50 hGLP1R 0.5% hP (CreLuc) (human GLP-1 receptor): 0.07 nM
- EC50 hGLP1R 100% hP (CreLuc) (human GLP-1 receptor): 1.44 nM
- EC50 hGIPR 0.5% hP (CreLuc) (human GIP receptor): 0.12 nM
- EC50 hGIPR 100% hP (CreLuc) (human GIP receptor): 1.18 nM
B1: Compound 267 (peptide)
peptide: Y[Aib]EGTFTSDYSI[Aib]LEKQAQ[Aib]AFVQWLIK([εLys-γGlu-γGlu-γGlu-γGlu-γGlu-C18 diacid])GGPSEGASLRHYYNWLTRQRY-NH2
modifications: also: TFA salt

- EC50 hNPY2R 0.5% hP (CreLuc) [1]: 19.3 nM
- EC50 hNPY2R 100% hP (CreLuc) [1]: 76.3 nM
- EC50 hGLP1R 0.5% hP (CreLuc) (human GLP-1 receptor): 0.75 nM
- EC50 hGLP1R 100% hP (CreLuc) (human GLP-1 receptor): 19.2 nM
- EC50 hGIPR 0.5% hP (CreLuc) (human GIP receptor): 0.38 nM
- EC50 hGIPR 100% hP (CreLuc) (human GIP receptor): 1.52 nM
B2: Compound 273 (peptide)
peptide: Y[Aib]EGTFTSDYSI[Aib]LEKQAQ[Aib]EFVEWLIK([AEEA-AEEA-γGlu-γGlu-γGlu-C20 diacid])GGPSEGASLRHYYNWLTRQRY-NH2
modifications: also: TFA salt

- EC50 hNPY2R 0.5% hP (CreLuc) [1]: 9.56 nM
- EC50 hNPY2R 100% hP (CreLuc) [1]: 32.5 nM
- EC50 hGLP1R 0.5% hP (CreLuc) (human GLP-1 receptor): 0.14 nM
- EC50 hGLP1R 100% hP (CreLuc) (human GLP-1 receptor): 3.86 nM
- EC50 hGIPR 0.5% hP (CreLuc) (human GIP receptor): 0.46 nM
- EC50 hGIPR 100% hP (CreLuc) (human GIP receptor): 1.23 nM
B3: Compound 269 (peptide)
peptide: Y[Aib]EGTFTSDYSI[Aib]LEKQAQ[Aib]AFVQWLIK([AEEA-AEEA-γGlu-γGlu-γGlu-γGlu-C20 diacid])GGPSEGASLRHYYNWLTRQRY-NH2
modifications: also: TFA salt

- EC50 hNPY2R 0.5% hP (CreLuc) [1]: 16.1 nM
- EC50 hNPY2R 100% hP (CreLuc) [1]: 80 nM
- EC50 hGLP1R 0.5% hP (CreLuc) (human GLP-1 receptor): 0.53 nM
- EC50 hGLP1R 100% hP (CreLuc) (human GLP-1 receptor): 21.4 nM
- EC50 hGIPR 0.5% hP (CreLuc) (human GIP receptor): 0.62 nM
- EC50 hGIPR 100% hP (CreLuc) (human GIP receptor): 2.62 nM
B4: Compound 271 (peptide)
peptide: Y[Aib]EGTFTSDYSI[Aib]LEKQAQ[Aib]EFVEWLIK([γGlu-γGlu-γGlu-γGlu-C20 diacid])GGPSEGASLRHYYNWLTRQRY-NH2
modifications: also: TFA salt

- EC50 hNPY2R 0.5% hP (CreLuc) [1]: 9.52 nM
- EC50 hNPY2R 100% hP (CreLuc) [1]: 21.1 nM
- EC50 hGLP1R 0.5% hP (CreLuc) (human GLP-1 receptor): 0.07 nM
- EC50 hGLP1R 100% hP (CreLuc) (human GLP-1 receptor): 1.69 nM
- EC50 hGIPR 0.5% hP (CreLuc) (human GIP receptor): 0.12 nM
- EC50 hGIPR 100% hP (CreLuc) (human GIP receptor): 0.71 nM
B5: Compound 270 (peptide)
peptide: Y[Aib]EGTFTSDYSI[Aib]LEKQAQ[Aib]AFVQWLIK([AEEA-AEEA-γGlu-γGlu-γGlu-γGlu-C18 diacid])GGPSEGASLRHYYNWLTRQRY-NH2
modifications: also: TFA salt

- EC50 hNPY2R 0.5% hP (CreLuc) [1]: 9.86 nM
- EC50 hNPY2R 100% hP (CreLuc) [1]: 47.3 nM
- EC50 hGLP1R 0.5% hP (CreLuc) (human GLP-1 receptor): 0.08 nM
- EC50 hGLP1R 100% hP (CreLuc) (human GLP-1 receptor): 1.55 nM
- EC50 hGIPR 0.5% hP (CreLuc) (human GIP receptor): 0.17 nM
- EC50 hGIPR 100% hP (CreLuc) (human GIP receptor): 1.01 nM
B6: Compound 268 (peptide)
peptide: Y[Aib]EGTFTSDYSI[Aib]LEKQAQ[Aib]AFVQWLIK([γGlu-γGlu-γGlu-γGlu-C18 diacid])GGPSEGASLRHYYNWLTRQRY-NH2
modifications: also: TFA salt

- EC50 hNPY2R 0.5% hP (CreLuc) [1]: 23.8 nM
- EC50 hNPY2R 100% hP (CreLuc) [1]: 113 nM
- EC50 hGLP1R 0.5% hP (CreLuc) (human GLP-1 receptor): 0.31 nM
- EC50 hGLP1R 100% hP (CreLuc) (human GLP-1 receptor): 15.6 nM
- EC50 hGIPR 0.5% hP (CreLuc) (human GIP receptor): 0.24 nM
- EC50 hGIPR 100% hP (CreLuc) (human GIP receptor): 3.01 nM
B7: Compound 272 (peptide)
peptide: Y[Aib]EGTFTSDYSI[Aib]LEKQAQ[Aib]AFVEWLIK([γGlu-γGlu-γGlu-γGlu-C18 diacid])GGPEEGASLRHYYNWLTRQRY-NH2
modifications: also: TFA salt

- EC50 hNPY2R 0.5% hP (CreLuc) [1]: 7.2 nM
- EC50 hNPY2R 100% hP (CreLuc) [1]: 22.9 nM
- EC50 hGLP1R 0.5% hP (CreLuc) (human GLP-1 receptor): 0.1 nM
- EC50 hGLP1R 100% hP (CreLuc) (human GLP-1 receptor): 2.21 nM
- EC50 hGIPR 0.5% hP (CreLuc) (human GIP receptor): 0.13 nM
- EC50 hGIPR 100% hP (CreLuc) (human GIP receptor): 0.65 nM
B8: Compound 266 (peptide)
peptide: Y[Aib]EGTFTSDYSI[Aib]LEKQAQ[Aib]AFVQWLIK([OEG-OEG-γGlu-γGlu-γGlu-C18 diacid])GGPSEGASLRHYYNWLTRQRY-NH2
modifications: also: TFA salt
